Source: publication PMC4169324 (The FEBS journal, 2014)

Key:
SEC = target: the molecule itself; assay: SEC
crystal structure = target: the molecule itself; assay: crystal structure

B1: BcRsaM protein (product of bcam1869) from B. cenocepacia J2315, native (natural protein)
chain: SNAMTSPLLHPVPGPSPDGYVRLSEGALAALVLDHVASGLDPSLLAELRDNAIDARLAGYTEWHRTAGAGVAYVTVGWDWYLERATGTFVIAGGDVRSNVMAIDAKGADIGMLRTAAALAARLAALDWPAAVASALLGHNDAYHAGPTLQ
SEC
  stoichiometry N: 2

B2: SeMet-labeled BcRsaM protein from B. cenocepacia J2315 (natural protein)
chain: SNAMTSPLLHPVPGPSPDGYVRLSEGALAALVLDHVASGLDPSLLAELRDNAIDARLAGYTEWHRTAGAGVAYVTVGWDWYLERATGTFVIAGGDVRSNVMAIDAKGADIGMLRTAAALAARLAALDWPAAVASALLGHNDAYHAGPTLQ
modifications: selenomethionine (SeMet-labeled; 70 mg/L SeMet in the culture for crystals X4)
Crystal structure
  binding result: binds
